In US20100247562A1:

What was measured:
human MUC1 (human) [1] = target: human MUC1 (human) (UniProt P15941); test: co-immunoprecipitation with anti-HSP70, anti-MUC1 immunoblot, densitometry; lane 6 (taken to be FC/MUC1 fusion cells)
human MUC1 (human) [2] = target: human MUC1 (human) (UniProt P15941); test: co-immunoprecipitation with anti-HSP70, anti-MUC1 immunoblot, densitometry; lane 4 (taken to be MC38/MUC1 tumor cells)

Sequence of HSP70 (endogenous, immunoprecipitated with anti-HSP70 antibody Ab46 or purified by ADP-agarose from MC38/MUC1 tumor cells or FC/MUC1 DC-tumor fusion cells) (Q61696 2-641): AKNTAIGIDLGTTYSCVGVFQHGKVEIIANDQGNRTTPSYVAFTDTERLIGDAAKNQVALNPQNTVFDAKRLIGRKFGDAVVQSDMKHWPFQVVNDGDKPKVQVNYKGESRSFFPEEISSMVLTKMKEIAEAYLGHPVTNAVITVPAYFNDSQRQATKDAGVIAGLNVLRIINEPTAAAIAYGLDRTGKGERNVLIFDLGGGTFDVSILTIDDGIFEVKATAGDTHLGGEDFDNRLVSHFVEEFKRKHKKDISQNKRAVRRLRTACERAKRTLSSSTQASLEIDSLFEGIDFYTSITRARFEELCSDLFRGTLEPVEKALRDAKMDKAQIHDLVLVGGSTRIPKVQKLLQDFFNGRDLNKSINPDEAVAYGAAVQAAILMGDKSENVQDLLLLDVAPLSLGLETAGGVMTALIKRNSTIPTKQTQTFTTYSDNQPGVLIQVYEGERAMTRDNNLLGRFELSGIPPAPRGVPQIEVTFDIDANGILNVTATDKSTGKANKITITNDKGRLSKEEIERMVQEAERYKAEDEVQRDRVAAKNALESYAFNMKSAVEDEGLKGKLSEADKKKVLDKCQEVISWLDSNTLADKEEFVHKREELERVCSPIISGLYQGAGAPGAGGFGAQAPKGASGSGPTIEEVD
Sequence of UniProt P15941 (P15941 24-1255 limits assumed): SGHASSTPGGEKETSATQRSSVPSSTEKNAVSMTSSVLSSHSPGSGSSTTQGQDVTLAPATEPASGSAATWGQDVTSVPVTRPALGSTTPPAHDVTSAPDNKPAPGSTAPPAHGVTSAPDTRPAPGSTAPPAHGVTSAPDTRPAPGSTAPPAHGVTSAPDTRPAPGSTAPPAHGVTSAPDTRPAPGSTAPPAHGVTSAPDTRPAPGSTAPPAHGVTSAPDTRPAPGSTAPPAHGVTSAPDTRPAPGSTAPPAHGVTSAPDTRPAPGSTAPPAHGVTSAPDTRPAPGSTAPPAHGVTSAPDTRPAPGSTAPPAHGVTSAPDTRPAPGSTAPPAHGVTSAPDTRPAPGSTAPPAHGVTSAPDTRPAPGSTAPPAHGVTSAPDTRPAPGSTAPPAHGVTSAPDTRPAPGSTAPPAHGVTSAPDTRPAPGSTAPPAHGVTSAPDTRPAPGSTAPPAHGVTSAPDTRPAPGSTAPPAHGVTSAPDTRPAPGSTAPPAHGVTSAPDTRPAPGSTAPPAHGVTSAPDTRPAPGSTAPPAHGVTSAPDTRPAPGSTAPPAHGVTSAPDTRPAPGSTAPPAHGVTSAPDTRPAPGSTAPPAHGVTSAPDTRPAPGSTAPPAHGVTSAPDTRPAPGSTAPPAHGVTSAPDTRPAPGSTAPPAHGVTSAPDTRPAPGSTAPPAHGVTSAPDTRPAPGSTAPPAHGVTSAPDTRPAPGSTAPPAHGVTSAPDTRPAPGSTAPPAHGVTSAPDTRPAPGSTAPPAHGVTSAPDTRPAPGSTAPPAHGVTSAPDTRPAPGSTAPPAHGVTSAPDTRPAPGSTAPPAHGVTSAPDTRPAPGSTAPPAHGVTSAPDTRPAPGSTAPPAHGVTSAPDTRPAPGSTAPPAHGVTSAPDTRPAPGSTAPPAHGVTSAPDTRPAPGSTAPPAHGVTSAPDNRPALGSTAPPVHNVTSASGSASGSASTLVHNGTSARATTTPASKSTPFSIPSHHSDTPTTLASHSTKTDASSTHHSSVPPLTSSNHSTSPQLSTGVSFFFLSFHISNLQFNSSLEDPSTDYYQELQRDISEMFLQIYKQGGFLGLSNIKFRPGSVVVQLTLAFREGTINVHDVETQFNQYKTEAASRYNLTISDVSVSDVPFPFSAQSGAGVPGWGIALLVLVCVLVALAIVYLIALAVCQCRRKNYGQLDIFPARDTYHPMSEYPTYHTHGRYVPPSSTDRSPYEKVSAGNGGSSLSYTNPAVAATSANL

HSP70 (endogenous, immunoprecipitated with anti-HSP70 antibody Ab46 or purified by ADP-agarose from MC38/MUC1 tumor cells or FC/MUC1 DC-tumor fusion cells)
relative density of MUC1 (lane 6) (human MUC1 (human) [1]): 41.5% | relative density of MUC1 (lane 4) (human MUC1 (human) [2]): 10.7%
